Test system: MS2 coat protein
Assay: apparent KD of MS2 coat protein; designed switch direction (-1 OFF switch, 1 ON switch): -1; higher = weaker reporter binding
In short: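 Designed RNA switches with common flanks were made on Illumina chips by stalled E. coli RNA polymerase. Titration with SNAP-549-labelled MS2 coat protein doubled from 0.7 or 1.5 nM up to 3 µM. Apparent KD is each design's median over clusters after curve-fitting normalised fluorescence.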

[1] = input ligand: microRNA oligo, concentration not stated
[2] = Eterna round: R95, input ligand: microRNA oligo, concentration not stated

Sequence: UAUUUAGCAAGCAGAUCCCACAUGAGGAUCACCCAUGUUUUCUGAAUGUACAGAAUUACUGUACUUGCUCGUCUUAU [Winner reversed engineered 36] (Eterna round: R97, puzzle: Sensor, turn-off variant 1)
- apparent KD of MS2 coat protein (input ligand: FMN 200 uM): 0.0762 µM
- apparent KD of MS2 coat protein (input ligand: none): 0.0826 µM

Sequence: AUGAACAAUGUAGGAUAUGCGUGGCGAAGCUAUGCAGAAGGACAUGAGGAUCACCCAUGUUCAAGCGUCUGCGUACAGAUGCUA [JL eng1 1.35 mod 7] (Eterna round: R96, puzzle: Exclusion NG 1)
- apparent KD of MS2 coat protein (input ligand: FMN 200 uM): 0.0269 µM
- apparent KD of MS2 coat protein [1]: 0.0103 µM
- apparent KD of MS2 coat protein (input ligand: none): 0.0138 µM

Sequence: GAUCAUGCAGGAUAUACAUGUUCCAUGAAAACAUGGUCCUCACAUGAGGAUCACCCAUGUAGAAGGGCAUGAUC [Omei Ex2 A31] (Eterna round: R97, puzzle: Exclusion 2)
- apparent KD of MS2 coat protein (input ligand: FMN 200 uM): 0.132 µM
- apparent KD of MS2 coat protein (input ligand: none): 1.45 µM

Sequence: CGGGUGAACAGAGGAUAUCGUACAUGAGGAUCACCCAUGUAAUAAAUGAGAAUUUCGAAUGUAAUCGAGAAGGCUGGAAAACCC [Ostracism 93 - Jieux - Exclusion NG 2] (Eterna round: R96, puzzle: Exclusion NG 2)
- apparent KD of MS2 coat protein (input ligand: FMN 200 uM): 0.229 µM
- apparent KD of MS2 coat protein [1]: 0.115 µM
- apparent KD of MS2 coat protein (input ligand: none): 0.128 µM

Sequence: AGAGAGUCAGGAUAUGACGAAGAGAACAUGAGGAUCACCCAUGUAGCUUCGUAAUUAUCGUCAGAAGGGACGAACU [JR_Ex5_Sub089] (Eterna round: R97, puzzle: Exclusion 5)
- apparent KD of MS2 coat protein (input ligand: FMN 200 uM): 0.0157 µM
- apparent KD of MS2 coat protein (input ligand: none): 0.0142 µM

Sequence: AACUCUGAGAAGGAUAUUGUACGGGAAAUGGUACAAGAAGGUUUCACAUGAGGAUCACCCAUGUCGAAUAGUGA [EX6 #69] (Eterna round: R97, puzzle: Exclusion 6)
- apparent KD of MS2 coat protein (input ligand: FMN 200 uM): 0.0347 µM
- apparent KD of MS2 coat protein (input ligand: none): 0.0229 µM

Sequence: AUCAUGUAAGGAUAUCUUAUAUGGAUCGAAAGAUCAAGUUAAGAGAAGGUACAUGAGGAUCACCCAUGUAUAAC [Ex4-3: 33] (puzzle: Exclusion 4)
- apparent KD of MS2 coat protein [2]: 0.0194 µM

Sequence: AGCGAAAAGGCAGGAUAUGAGAAUAGAUAGAGCUCAGAAGGGCCACAUGAGGAUCACCCAUGUAAAGUCUUGAGGCUGCGUGGU [Prohibition 12 - Jieux - Exclusion NG 1] (Eterna round: R96, puzzle: Exclusion NG 1)
- apparent KD of MS2 coat protein (input ligand: FMN 200 uM): 0.488 µM
- apparent KD of MS2 coat protein [1]: 0.0684 µM
- apparent KD of MS2 coat protein (input ligand: none): 0.0604 µM

Sequence: AAGCUAUCUGUAGGAUAUACAACUGAUCUCGAGGUAGAAGGACAUCCAGUUACGCCAACAUGAGGAUCACCCAUGUGGAUCUUG [Eternabot solution 39] (Eterna round: R96, puzzle: Exclusion NG 1)
- apparent KD of MS2 coat protein (input ligand: FMN 200 uM): 0.0152 µM
- apparent KD of MS2 coat protein [1]: 0.0129 µM
- apparent KD of MS2 coat protein (input ligand: none): 0.0184 µM

Sequence: GUAGAGUAAGGAUAUGCUGAAUAGGAUAGAAUGGUUAGAAAGUAGAAGGUACAUGAGGAUCACCCAUGUAAUGU [Excluse me!!!! 24 - Jieux - Exclusion 4] (puzzle: Exclusion 4)
- apparent KD of MS2 coat protein [2]: 0.0203 µM

Sequence: UGAAUGUCAGAGGAUAUGCACGAUUGGACCGAGGCAGAAGGCUGAACAUGAGGAUCACCCAUGUCAAGAUCUUC [Eternabot (L1) Solution 93] (Eterna round: R97, puzzle: Exclusion 6)
- apparent KD of MS2 coat protein (input ligand: FMN 200 uM): 0.18 µM
- apparent KD of MS2 coat protein (input ligand: none): 0.0263 µM

Sequence: GCUCGAAGGAGUGGGAGCAACAUGAGGAUCACCCAUGUGCGGCUAUUUCAUGCUCGUCUUAAAGCUUUGCCCUAGCC [Eternabot (Original) Solution 40] (Eterna round: R97, puzzle: Sensor, turn-off variant 1)
- apparent KD of MS2 coat protein (input ligand: FMN 200 uM): 0.0172 µM
- apparent KD of MS2 coat protein (input ligand: none): 0.0185 µM

Sequence: GAAAACGAAGAGGAUAUUUGAUAUCAAAGCUUCAAAGAAGGCUUCACAUGAGGAUCACCCAUGUGAUCUUCAAU [Mat - Exclusion 6 - JL Mod - D15] (Eterna round: R97, puzzle: Exclusion 6)
- apparent KD of MS2 coat protein (input ligand: FMN 200 uM): 0.212 µM
- apparent KD of MS2 coat protein (input ligand: none): 0.0245 µM

Sequence: GACAGGGCAGGAUAUCGAGAUCCUCACAUGAGGAUCACCCAUGUUCAGUCGAAAGACUGACGAGAAGGGCCGUGUC [Omei Ex5 E3] (Eterna round: R97, puzzle: Exclusion 5)
- apparent KD of MS2 coat protein (input ligand: FMN 200 uM): 0.0368 µM
- apparent KD of MS2 coat protein (input ligand: none): 0.0332 µM

Sequence: GAUUAUGCGAGCUUUAGGGACAUGAGGAUCACCCAUGUUCGUCUUAUUGGUCUGGAUGCGCUAACAUACCUAAAUCU [JMF 46] (puzzle: Sensor v3, turn-off variant 1)
- apparent KD of MS2 coat protein (Eterna round: R95, input ligand: FMN 200 uM): 0.0224 µM
- apparent KD of MS2 coat protein [2]: 0.0317 µM
- apparent KD of MS2 coat protein (Eterna round: R95, input ligand: none): 0.0226 µM

Sequence: ACUUGUGUUGAGGAUAUGCGCCGGCUCGCUGGCGCAGAAGGCGGCACAUGAGGAUCACCCAUGUCAGUUCGCGU [salish99_ex6_r004_002] (Eterna round: R97, puzzle: Exclusion 6)
- apparent KD of MS2 coat protein (input ligand: FMN 200 uM): 0.3 µM
- apparent KD of MS2 coat protein (input ligand: none): 0.0264 µM

Sequence: AAUAACAAGUUGAUCCUACACAUGAGGAUCACCCAUGUGCUCGUCUUGUCAAGUACUAUCACGAAAGUGUUAGUUCA [Mod-Hyphema] (Eterna round: R97, puzzle: Sensor, turn-off variant 1)
- apparent KD of MS2 coat protein (input ligand: FMN 200 uM): 0.0747 µM
- apparent KD of MS2 coat protein (input ligand: none): 0.263 µM

Sequence: UUAUUCAGAGGAUAUGCGCAUAGAUAAGACUUUUUUUCUUAACAUGAGGAUCACCCAUGUAGAAGGCUGUAAUA [Ex2 #57] (Eterna round: R97, puzzle: Exclusion 2)
- apparent KD of MS2 coat protein (input ligand: FMN 200 uM): 0.0198 µM
- apparent KD of MS2 coat protein (input ligand: none): 0.0184 µM

Sequence: AAUAACAAGCAGAUCCUAAACAUGAGGAUCACCCAUGUGCUCGUCUUGUUGUACUAUCACUCGAAAGUGAUAGUACA (Eterna round: R97, puzzle: Sensor, turn-off variant 1)
- apparent KD of MS2 coat protein (input ligand: FMN 200 uM): 0.0901 µM
- apparent KD of MS2 coat protein (input ligand: none): 0.104 µM

Sequence: UUCAUGUGAGGAUAUGUGUACUGUUUUUUGUUUAGAUGUACACAGAAGGCACAUGAGGAUCACCCAUGUAGUAC [Ex4 - 3 - 32] (puzzle: Exclusion 4)
- apparent KD of MS2 coat protein [2]: 0.03 µM

Sequence: ACUGGAGCAGGAUAUAUAUGACGUGCUUCGGCACGGUGAGUACAUGAGGAUCACCCAUGUAGAAGGGCUCCAGU [Exclusion 2 (Mod2 of Brourd's E2/9-D2)] (Eterna round: R97, puzzle: Exclusion 2)
- apparent KD of MS2 coat protein (input ligand: FMN 200 uM): 0.0884 µM
- apparent KD of MS2 coat protein (input ligand: none): 0.0234 µM

Sequence: GUGCACGUAGGAUAUUAGAAGGAGAACAUGAGGAUCACCCAUGUUAUCCAUCACCUCCGCUAAGAAGGAUGGCCAC [EX5 C.6] (Eterna round: R97, puzzle: Exclusion 5)
- apparent KD of MS2 coat protein (input ligand: FMN 200 uM): 0.0141 µM
- apparent KD of MS2 coat protein (input ligand: none): 0.013 µM

Sequence: GUAAUUAUAUAGGAUAUCGAUUUUAUUAUUUAACGAGAAGGAUGAACAUGAGGAUCACCCAUGUGGUAUCAUGG [JL-ex6-3.05] (puzzle: Exclusion 6)
- apparent KD of MS2 coat protein [2]: 0.138 µM

Sequence: GAGACAUGAGGAUCACCCAUGUGUGGUCCAAGGCAUGUCGUCGAGGAUAUGCAGGACGUCGUCUUGCAGAAGGCGACUAAAUAC [Teatarti] (Eterna round: R96, puzzle: Exclusion NG 3)
- apparent KD of MS2 coat protein (input ligand: FMN 200 uM): 0.0178 µM
- apparent KD of MS2 coat protein [1]: 0.0195 µM
- apparent KD of MS2 coat protein (input ligand: none): 0.105 µM

Sequence: CAUAUGGGAGGAUAUGCAUAGAUAAAGAAACAUGUUCAACCACAUGAGGAUCACCCAUGUAGAAGGCCCAUAUG [Mat - Same state - Mayanna Mod - D102] (Eterna round: R96, puzzle: Exclusion 2)
- apparent KD of MS2 coat protein (input ligand: FMN 200 uM): 0.266 µM
- apparent KD of MS2 coat protein [1]: 0.0227 µM
- apparent KD of MS2 coat protein (input ligand: none): 0.0328 µM

Sequence: CAGUACUGAGGAUAUACAUGAGGAUCACCCAUGUGUUCCGGCUAGGAAACUAGCAAAGGUAGAAGGCAGUACUG [Salish 065 m11] (Eterna round: R97, puzzle: Exclusion 3)
- apparent KD of MS2 coat protein (input ligand: FMN 200 uM): 0.823 µM
- apparent KD of MS2 coat protein (input ligand: none): 0.0437 µM

From the supplement of paper PMC9170038
